Patent publication US20110059076A1, “HUMAN SERUM ALBUMIN LINKERS AND CONJUGATES THEREOF” (priority 2008, published 2011)
Entries after “also recorded” stand apart in the source; their conditions may differ.

Columns and labels:
[1] = target: T1, recombinant extracellular domain of ErbB3 (Homo sapiens, UniProt P21860); assay: specificity competition ELISA on ErbB3-coated plates; conditions: half-maximal binding concentration of B2B3-1
T1 construct: Plates are coated with the recombinant extracellular domain of either ErbB2 or ErbB3
Text: Plates are coated with the recombinant extracellular domain of either ErbB2 or ErbB3.

[2] = system: signaling proteins in BT474 breast cancer cells; assay: Western blot of signaling proteins in BT474 cells; assay type: cell-based; conditions: BT474, dose range 24 hours, heregulin stimulation
Experimental: Levels of pErbB2, pErbB3, pErk and pAKT and their corresponding total protein levels are determined on cell lysates by Western blot analysis.

[3] = system: 10 tumor xenograft models; assay: activity in 10 tumor xenograft models versus ErbB2 expression; assay type: in vivo; conditions: low to high ErbB2
BT-474 cells = assay: cell impedance proliferation assay (RT-CES); assay type: cell-based; conditions: calculated 68 hours after treatment, read-out: IC50 of inhibition of cell impedance
[4] = pharmacokinetics in Cynomolgus monkeys (dose range-finding toxicology study); assay type: in vivo, Cynomolgus monkey
Experimental: Blood samples for pharmacokinetic analysis are also obtained from a dose range-finding toxicology study in female Cynomolgus monkeys. […] Sampling occurred prior to and 5 minutes after dosing on each dosing day (study days 1, 4, 7 and 10) to provide pre-dose and peak/trough concentrations, and at 1, 2, 4, 8, 24 and 48 hours after the end of the first infusion on day 1 and at 1, 2, 4, 8, 24, 48, 72 and 120 hours after the last infusion on day 10. For recovery animals dosed at 200 mg/kg serum samples are also collected at 168, 336 and 456 hours after the last infusion.
Cynomolgus monkey serum samples are assayed using the ErbB2/ErbB3 ELISA method described previously.

[5] = system: BT-474-M3 xenograft tumors; assay: q7d versus q3d dosing in BT-474-M3 xenografts; assay type: in vivo, athymic nude mice (nu/nu); conditions: intraperitoneal
Experimental: Mice receive a subcutaneous estrogen-releasing implant in the opposite flank (0.72 mg pellet, 60 day, slow-release, Innovative Research of America, Sarasota, Fla.) 24 h prior to the injection of 20×10^6 human BT-474-M3cells in PBS. […] Tumors are measured twice a week using digital calipers. Tumor volume is calculated using the formula: π/6×(W^2×L), where W is the short diameter and L is the long diameter. […] PBS vehicle is used as a negative control.

[6] = Cynomolgus monkey (1st dose), 4 mg/kg
[7] = Cynomolgus monkey (1st dose), 20 mg/kg
[8] = Cynomolgus monkey (1st dose), 200 mg/kg
[9] = Cynomolgus monkey (4th dose), 4 mg/kg
[10] = Cynomolgus monkey (4th dose), 20 mg/kg
[11] = Cynomolgus monkey (4th dose), 200 mg/kg
[12] = Cynomolgus monkey (4th dose), 200 mg/kg, recovery animals

In the case of “B2B3-1: bispecific scFv antibody fusion: anti-ErbB3 scFv H3 and anti-ErbB2 scFv B1D2 joined by a modified human serum albumin (HSA) linker”, the “blocking of binding to ErbB3-coated plates by soluble extracellular domains of EGFR, ErbB2, ErbB3 or ErbB4” value [1] is reported as “only soluble ErbB3 extracellular domain blocked; also recorded: binds specifically”, the “levels of pErbB2” value [2] is reported as “reduced in a dose-dependent manner” and the “levels of pErbB3” value [2] is reported as “reduced in a dose-dependent manner”. For the same substance, the “xenograft response in relation to ErbB2 expression levels” value [3] was “correlates positively”, the IC50 (BT-474 cells) was 33 nM and the AUC [4, 6] was 3.44E+03 hr-μg/ml. For the same substance, the Clearance [4, 6] was 28.1 mL/day/kg, the T½β [4, 6] was 39.1 h and the AUC [4, 7] was 2.29E+04 hr-μg/ml. For the same substance, the Clearance [4, 7] was 21.1 mL/day/kg, the T½β [4, 7] was 33.1 h and the AUC [4, 8] was 3.18E+05 hr-μg/ml. The Clearance [4, 8] was 15.4 mL/day/kg, the T½β [4, 8] was 68.8 h and the AUC [4, 9] was 7.20E+03 hr-μg/ml. For the same substance, the Clearance [4, 9] was 14.4 mL/day/kg, the T½β [4, 9] was 44.9 h and the AUC [4, 10] was 8.20E+04 hr-μg/ml. For the same substance, the Clearance [4, 10] was 6 mL/day/kg, the T½β [4, 10] was 122.5 h and the AUC [4, 11] was 5.72E+05 hr-μg/ml. It also gave a Clearance [4, 11] of 8.4 mL/day/kg, a T½β [4, 11] of 69.7 h and an AUC [4, 12] of 5.99E+05 hr-μg/ml. For the same substance, the Clearance [4, 12] was 8.16 mL/day/kg, the T½β [4, 12] was 66.6 h and the Mean half-life estimates ([4]; Cynomolgus monkey, day 1, 4, 20 or 200 mg/kg) was 38.3 to 67.2 h. For the same substance, the “efficacy of q7d dosing (66, 132, 198 mg/kg) versus 30 mg/kg q3d” value [5] was “equivalent efficacy”.
